T1: G3BP2 NTF2 domain (human, UniProt Q9UN86 11-133)
T1 sequence (looked up): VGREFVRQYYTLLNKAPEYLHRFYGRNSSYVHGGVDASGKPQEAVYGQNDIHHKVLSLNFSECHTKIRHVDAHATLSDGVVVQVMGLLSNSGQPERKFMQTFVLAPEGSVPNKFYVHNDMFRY


Experiments:
Conditions in all cases: both partners purified
[1] = target: Ezrin FERM domain (human, UniProt P15311 2-296)
[2] = target: T2, Radixin FERM domain (human, UniProt P35241 5-295)
T2 construct: also called RDX

[3] = target: T1, G3BP2 NTF2 domain

Ezrin FERM domain, sequence (P15311 2-296): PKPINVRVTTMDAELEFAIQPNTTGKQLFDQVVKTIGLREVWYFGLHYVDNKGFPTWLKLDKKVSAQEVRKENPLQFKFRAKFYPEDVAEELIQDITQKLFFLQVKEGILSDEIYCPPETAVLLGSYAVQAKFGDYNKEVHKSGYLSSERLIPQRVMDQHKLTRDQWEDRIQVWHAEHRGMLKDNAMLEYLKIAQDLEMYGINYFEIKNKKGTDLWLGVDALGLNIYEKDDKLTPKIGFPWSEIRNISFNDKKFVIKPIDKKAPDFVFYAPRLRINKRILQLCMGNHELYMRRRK
T2 sequence (P35241 5-295): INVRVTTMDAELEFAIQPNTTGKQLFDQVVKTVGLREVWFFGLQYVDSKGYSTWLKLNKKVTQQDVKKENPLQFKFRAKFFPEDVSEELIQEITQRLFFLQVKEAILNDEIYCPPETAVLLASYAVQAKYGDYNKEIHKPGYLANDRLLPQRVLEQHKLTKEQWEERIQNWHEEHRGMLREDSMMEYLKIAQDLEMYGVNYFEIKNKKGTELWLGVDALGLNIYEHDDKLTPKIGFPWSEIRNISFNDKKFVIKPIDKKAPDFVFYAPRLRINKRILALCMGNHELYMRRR

| Binder | IC50 [1] | Ki [1] | IC50 [2] | IC50 [3] | Ki [3] |
| --- | --- | --- | --- | --- | --- |
| VETSNSFDVLKSEDAQY [NSP3 peptide 2019-2034 (Sars-CoV2)] | 1530 µM | 37.6 µM | 1530 µM |  |  |
| QGKPLEFGATSAALQY [NSP3 peptide 956-971 (Sars-CoV2)] |  |  |  | 100 µM | 35 µM |
